B1: HDV Ribozyme (parent)
chain: GGCCGGCAUGGUCCCAGCCUCCUCGCUGGCGCCGGCUGGGCAACAUUCCGAGGGGACCGUCCCCUCGGUAAUGGCGAAUGGGACCCA

Variants of: B1
Test: self-cleavage, relative activity (ratio to wild type); higher = more cleavage; co-transcriptional

Going from A71U A77C to G82U A87C, the self-cleavage rises from 0.287 to 0.406.

First: G82C C84G
Second: G80U C85G
The self-cleavage of the first is lower: 0.101 for the first, 0.191 for the second.

First: A83U C84A
Second: A83U C84G
The self-cleavage of the first is higher: 0.813 for the first, 0.332 for the second.

Compared with A78U U79G, A78U U79C is higher in self-cleavage: 0.138 for the first, 0.375 for the second.

First: G74U A78C
Second: U72G A87G
The self-cleavage of the first is lower: 0.201 for the first, 0.546 for the second.

Going from C75G A83G to G74U C84U, the self-cleavage rises from 0.153 to 0.213.

Going from U79A C84G to G73A A77U, the self-cleavage falls from 0.256 to 0.189.

First: G73A A77G
Second: G73A G76C
The self-cleavage of the first is lower: 0.386 for the first, 0.516 for the second.

First: U72G A83C
Second: C75U A83G
The self-cleavage of the first is higher: 0.332 for the first, 0.166 for the second.

Compared with A83G C84U, G74U is lower in self-cleavage: 0.798 for the first, 0.569 for the second.

First: G74A
Second: G74C
The self-cleavage of the first is higher: 0.478 for the first, 0.213 for the second.

Compared with U79G G82C, G81U C86A is higher in self-cleavage: 0.119 for the first, 0.652 for the second.

Going from U72G A77G to U72G A77C, the self-cleavage falls from 0.178 to 0.128.

Going from C85A A87G to A77G A87G, the self-cleavage rises from 0.875 to 0.966.

First: A77G A87C
Second: G73A G81C
The self-cleavage of the first is higher: 0.735 for the first, 0.425 for the second.

First: G73A G81U
Second: A78G G81C
The self-cleavage of the first is higher: 0.18 for the first, 0.148 for the second.

Going from U72G C85A to A77G A83G, the self-cleavage rises from 0.653 to 0.906.

Going from G76A C85U to A77C G80A, the self-cleavage falls from 1.11 to 0.0378.

First: A77C G80C
Second: C84A C86U
The self-cleavage of the first is lower: 0.179 for the first, 0.719 for the second.

Going from G73U C86G to A71G U72C, the self-cleavage rises from 0.354 to 0.705.

Going from A71G U72A to A77C C86U, the self-cleavage falls from 0.573 to 0.519.

Going from A77C C86G to G74C A87U, the self-cleavage rises from 0.302 to 0.304.

First: C75A C85G
Second: C75A C85U
The self-cleavage of the first is lower: 0.116 for the first, 0.256 for the second.

Compared with G74A C75U, C75U G76U is higher in self-cleavage: 0.141 for the first, 0.271 for the second.

First: G81C G82A
Second: C75G G76C
The self-cleavage of the first is lower: 0.0665 for the first, 0.189 for the second.

Compared with G80C A83U, A78G C86G is higher in self-cleavage: 0.164 for the first, 0.806 for the second.

First: G80U C84G
Second: G80U C84U
The self-cleavage of the first is higher: 0.332 for the first, 0.164 for the second.

Going from G74C G81U to G80A G81A, the self-cleavage rises from 0.0831 to 0.185.

First: G73A C84G
Second: G74U G81U
The self-cleavage of the first is higher: 0.345 for the first, 0.156 for the second.

Going from G74U G81C to A77G C85U, the self-cleavage rises from 0.225 to 1.04.

Compared with A77G C85G, A78G A87G is higher in self-cleavage: 0.655 for the first, 0.658 for the second.

First: G73A A78U
Second: G73A A78G
The self-cleavage of the first is lower: 0.106 for the first, 0.203 for the second.

First: A77C A83C
Second: U79A G80U
The self-cleavage of the first is higher: 0.172 for the first, 0.148 for the second.

Going from C75A C86A to U79G C85A, the self-cleavage rises from 0.219 to 0.415.

Going from C84U A87G to A71G G81U, the self-cleavage falls from 0.437 to 0.291.

First: G73U G82A
Second: U72A C75A
The self-cleavage of the first is lower: 0.135 for the first, 0.222 for the second.

Compared with A78G A83C, G82U C84G is higher in self-cleavage: 0.128 for the first, 0.249 for the second.

First: G74U G76C
Second: G74U G76U
The self-cleavage of the first is higher: 0.831 for the first, 0.794 for the second.

First: A83U C86G
Second: A83U C86A
The self-cleavage of the first is lower: 0.361 for the first, 0.708 for the second.

Going from G81U A87U to C75U G81A, the self-cleavage falls from 0.455 to 0.166.

Compared with C75U G81U, G80C C85G is higher in self-cleavage: 0.193 for the first, 0.205 for the second.

G76C A78U gave a self-cleavage of 0.339.
